± gives the uncertainty stated by the source.
Assay: self-splicing fitness, log relative to wild type (ln ratio); higher = more splicing; Tetrahymena group I intron in knt gene, E. coli kanamycin selection, DiMSum; sequences stand for … in CUCUCU…GGAGGGAAAAGUUAUCAGGCAUGCACCUGGUAGCUAGUCUUUAAACCAAUAGAUUGCAUCGGUUUAAAAGGCAAGACCGUCAAAUUGCGGGAAAGGGGUCAACAGCCGUUCAGUACCAAGUCUCAGGGGAAACUUUGAGAUGGCCUUGCAAAGGGUAUGGUAAUAAGCUGACGGACAUGGUCCUAACCACGCAGCCAAGUCCUAAGUCAACAGAUCUUCUGUUGAUAUGGAUGCAGUUCACAGACUAAAUGUCGGUCGGGGAAGAUGUAUUCUUCUCAUAAGAUAUAGUCGGACCUCUCCUUAAUGGGAGCUAGCGGAUGAAGUGAUGCAACACUGGAGCCGCUGGGAACUAAUUUGUAUGCGAAAGUAUAUUGAUUAGUUUUGGAGUACUCGUGGUCG
In short: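 Pooled colonies went to amplicon sequencing on an Illumina HiSeq 2500 after six replicate transformations. The plates were LB agar with 100 μg/mL carbenicillin, 50 μM IPTG and 0.2% rhamnose, with or without 25 μg/mL kanamycin, incubated overnight at 37°C or 30°C. The E. coli BL21(DE3) library had all eight P1ex-region intron nucleotides randomised, the intron placed in the knt kanamycin-resistance gene on pET-22b(+). DiMSum fitness is the error-weighted combination of replicate fold changes, kanamycin against none, normalised to wild type.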

Sequence	self-splicing fitness (ln) (30 °C)	self-splicing fitness (ln) (37 °C)
AUCGAGCAAUAUUACGAAGU	-2.62 ± 0.18	-1.49 ± 0.18
AUCGAGCAAUAUUACGACCU	-0.95 ± 0.092	-0.344 ± 0.15
AUCGAGCAAUAUUACGAUCC	-2.13 ± 0.46	–
AUCGAGCAAUAUUACGCAAA	-2.86 ± 0.16	-2.38 ± 0.26
AUCGAGCAAUAUUACGCAUA	–	-1.54 ± 0.36
AUCGAGCAAUAUUACGCGGU	-2.9 ± 0.27	-1.4 ± 0.22
AUCGAGCAAUAUUACGCUGG	-2.78 ± 0.21	-2.96 ± 0.2
AUCGAGCAAUAUUACGCUGU	-2.24 ± 0.18	-3.35 ± 0.37
AUCGAGCAAUAUUACGGAAC	-2.61 ± 0.31	-2.07 ± 0.4
AUCGAGCAAUAUUACGGAAU	-3.47 ± 0.21	-1.79 ± 0.18
AUCGAGCAAUAUUACGGACA	-1.98 ± 0.38	-1.41 ± 0.42
AUCGAGCAAUAUUACGGCCA	-1.35 ± 0.41	-1.47 ± 0.37
AUCGAGCAAUAUUACGGCCC	-3.15 ± 0.35	1.32 ± 0.32
AUCGAGCAAUAUUACGGCUU	-3.88 ± 0.3	-2.58 ± 0.29
AUCGAGCAAUAUUACGGGAC	-2.89 ± 0.27	-1.11 ± 0.19
AUCGAGCAAUAUUACGGGAG	-3.52 ± 0.25	-2.5 ± 0.29
AUCGAGCAAUAUUACGGGGA	-2.83 ± 0.22	-1.18 ± 0.15
AUCGAGCAAUAUUACGGUCG	-2.73 ± 0.38	–
AUCGAGCAAUAUUACGUCAU	-2.35 ± 0.14	-1.65 ± 0.15
AUCGAGCAAUAUUACGUGGU	-3.23 ± 0.15	-2.72 ± 0.14
AUCGAGCAAUAUUACGUGUC	-3.76 ± 0.22	-0.765 ± 0.13
AUCGAGCAAUAUUACGUUAU	-3.5 ± 0.26	-2.59 ± 0.28
AUCGAGCAAUAUUACGUUCC	-1.89 ± 0.24	-2.02 ± 0.26
AUCGAGCAAUAUUACGUUUG	-4.29 ± 0.3	-2.05 ± 0.21
AUCUAGCAAUAUUACGAAGA	-1.45 ± 0.14	-1.67 ± 0.15

Sequence	self-splicing fitness (ln) (30 °C)	self-splicing fitness (ln) (37 °C)
AUCUAGCAAUAUUACGACCA	-0.438 ± 0.12	-0.302 ± 0.14
AUCUAGCAAUAUUACGACUC	-0.0532 ± 0.28	–
AUCUAGCAAUAUUACGAGUC	-4.11 ± 0.36	-2.19 ± 0.25
AUCUAGCAAUAUUACGAGUU	-2.66 ± 0.16	-0.737 ± 0.14
AUCUAGCAAUAUUACGAUCA	-1.92 ± 0.14	-0.116 ± 0.18
AUCUAGCAAUAUUACGAUGC	-1.74 ± 0.13	-1.33 ± 0.16
AUCUAGCAAUAUUACGCAUG	-1.88 ± 0.13	-0.806 ± 0.12
AUCUAGCAAUAUUACGCCAG	-2.77 ± 0.26	-2.17 ± 0.25
AUCUAGCAAUAUUACGCGAA	-2 ± 0.24	-0.373 ± 0.14
AUCUAGCAAUAUUACGCGCC	-0.659 ± 0.17	-0.398 ± 0.16
AUCUAGCAAUAUUACGCUUA	-1.44 ± 0.1	-0.971 ± 0.096
AUCUAGCAAUAUUACGGAAG	-1.99 ± 0.12	-0.947 ± 0.15
AUCUAGCAAUAUUACGGCAC	-1.5 ± 0.13	-0.819 ± 0.17
AUCUAGCAAUAUUACGGUGA	-1.75 ± 0.11	-0.608 ± 0.13
AUCUAGCAAUAUUACGGUUG	-2.66 ± 0.15	-2.45 ± 0.19
AUCUAGCAAUAUUACGUGAA	-2.52 ± 0.12	-0.861 ± 0.12
AUCUAGCAAUAUUACGUGCA	-0.394 ± 0.15	-0.423 ± 0.18
AUCUAGCAAUAUUACGUGGA	-2.71 ± 0.24	-2.91 ± 0.26
AUCUAGCAAUAUUACGUGUU	-2.71 ± 0.17	-2.54 ± 0.17
AUCUAGCAAUAUUACGUUAG	-3.26 ± 0.19	-2.67 ± 0.24
AUCUAGCAAUAUUACGUUUC	-2.64 ± 0.35	-2.9 ± 0.47
AUGAAGCAAUAUUACGAAAC	-2.04 ± 0.2	-0.541 ± 0.3
AUGAAGCAAUAUUACGACGG	-0.0267 ± 0.085	0.216 ± 0.14
AUGAAGCAAUAUUACGAGCG	0.0672 ± 0.066	0.405 ± 0.085
AUGAAGCAAUAUUACGAUCG	0.0492 ± 0.071	0.821 ± 0.11

Sequence	self-splicing fitness (ln) (30 °C)	self-splicing fitness (ln) (37 °C)
AUGAAGCAAUAUUACGCACU	0.079 ± 0.14	0.992 ± 0.22
AUGAAGCAAUAUUACGCCAU	-1.17 ± 0.082	-0.85 ± 0.12
AUGAAGCAAUAUUACGCUAG	-0.164 ± 0.07	0.337 ± 0.086
AUGAAGCAAUAUUACGCUCG	-0.0634 ± 0.1	0.31 ± 0.16
AUGAAGCAAUAUUACGGCGA	0.267 ± 0.082	0.989 ± 0.11
AUGAAGCAAUAUUACGGCGG	-0.365 ± 0.083	0.476 ± 0.11
AUGAAGCAAUAUUACGGCUG	0.352 ± 0.066	0.0954 ± 0.087
AUGAAGCAAUAUUACGGUCA	0.145 ± 0.07	0.605 ± 0.1
AUGAAGCAAUAUUACGGUCC	-0.305 ± 0.12	0.363 ± 0.14
AUGAAGCAAUAUUACGGUGG	-1.87 ± 0.069	-1.92 ± 0.12
AUGAAGCAAUAUUACGGUUG	-0.993 ± 0.11	-1.49 ± 0.12
AUGAAGCAAUAUUACGUAAC	-2.45 ± 0.18	0.328 ± 0.16
AUGAAGCAAUAUUACGUAAG	-1.05 ± 0.057	-0.409 ± 0.083
AUGAAGCAAUAUUACGUCUA	0.344 ± 0.094	0.623 ± 0.11
AUGAAGCAAUAUUACGUGAC	-2.85 ± 0.13	-1.63 ± 0.15
AUGAAGCAAUAUUACGUUCA	0.00482 ± 0.072	0.318 ± 0.1
AUGAAGCAAUAUUACGUUCC	-0.618 ± 0.086	-0.0585 ± 0.11
AUGAAGCAAUAUUACGUUGA	-2.39 ± 0.1	-0.85 ± 0.12
AUGCAGCAAUAUUACGAAAC	-2.82 ± 0.46	-0.989 ± 0.27
AUGCAGCAAUAUUACGAGAG	-4.15 ± 0.27	-1.16 ± 0.12
AUGCAGCAAUAUUACGAGAU	-3 ± 0.15	-1.54 ± 0.12
AUGCAGCAAUAUUACGAUCA	-0.908 ± 0.14	-0.711 ± 0.14
AUGCAGCAAUAUUACGAUUU	-0.306 ± 0.058	-0.153 ± 0.074
AUGCAGCAAUAUUACGCAGU	-3.23 ± 0.16	-1.69 ± 0.12
AUGCAGCAAUAUUACGCCCG	-1.22 ± 0.2	-0.571 ± 0.29

Sequence	self-splicing fitness (ln) (30 °C)	self-splicing fitness (ln) (37 °C)
AUGCAGCAAUAUUACGCCGC	-0.963 ± 0.28	–
AUGCAGCAAUAUUACGCGUG	-3.92 ± 0.17	-2.59 ± 0.18
AUGCAGCAAUAUUACGCUCC	-2.02 ± 0.29	0.0573 ± 0.36
AUGCAGCAAUAUUACGCUGA	-2.82 ± 0.19	-1.35 ± 0.13
AUGCAGCAAUAUUACGCUUC	-4.78 ± 0.34	-3.07 ± 0.34
AUGCAGCAAUAUUACGGAUC	-2.52 ± 0.15	-2.7 ± 0.14
AUGCAGCAAUAUUACGGAUG	-4.6 ± 0.29	-1.08 ± 0.13
AUGCAGCAAUAUUACGGCAC	-1.72 ± 0.25	-1.29 ± 0.26
AUGCAGCAAUAUUACGGCCU	0.794 ± 0.13	0.0607 ± 0.16
AUGCAGCAAUAUUACGGUCG	-1.41 ± 0.11	-0.972 ± 0.14
AUGCAGCAAUAUUACGGUGC	-3.79 ± 0.11	-3.02 ± 0.13
AUGCAGCAAUAUUACGUACG	-2.15 ± 0.1	-0.573 ± 0.12
AUGCAGCAAUAUUACGUAGA	-1.71 ± 0.079	-1.09 ± 0.1
AUGCAGCAAUAUUACGUCCA	-1.72 ± 0.11	-0.786 ± 0.11
AUGCAGCAAUAUUACGUCCC	-1.53 ± 0.42	–
AUGCAGCAAUAUUACGUCUG	-3.64 ± 0.35	-0.405 ± 0.16
AUGCAGCAAUAUUACGUGAC	-3.3 ± 0.21	-2.08 ± 0.16
AUGCAGCAAUAUUACGUGCU	-2.52 ± 0.1	-1.9 ± 0.098
AUGGAGCAAUAUUACGAAAG	-2.94 ± 0.24	-2.11 ± 0.32
AUGGAGCAAUAUUACGAACU	-1.95 ± 0.28	-1.45 ± 0.24
AUGGAGCAAUAUUACGAGCU	-3.12 ± 0.27	-2.17 ± 0.37
AUGGAGCAAUAUUACGAGGC	-3.37 ± 0.34	-2.44 ± 0.23

From the supplement of paper PMC7877785
